Sequences and labels used below:
T1: Full-length human CD96 on CHO-S cells (human, UniProt P40200 22-585)
T1 construct: also called CD96-CHOs; hCD96-CHOs
T1 sequence: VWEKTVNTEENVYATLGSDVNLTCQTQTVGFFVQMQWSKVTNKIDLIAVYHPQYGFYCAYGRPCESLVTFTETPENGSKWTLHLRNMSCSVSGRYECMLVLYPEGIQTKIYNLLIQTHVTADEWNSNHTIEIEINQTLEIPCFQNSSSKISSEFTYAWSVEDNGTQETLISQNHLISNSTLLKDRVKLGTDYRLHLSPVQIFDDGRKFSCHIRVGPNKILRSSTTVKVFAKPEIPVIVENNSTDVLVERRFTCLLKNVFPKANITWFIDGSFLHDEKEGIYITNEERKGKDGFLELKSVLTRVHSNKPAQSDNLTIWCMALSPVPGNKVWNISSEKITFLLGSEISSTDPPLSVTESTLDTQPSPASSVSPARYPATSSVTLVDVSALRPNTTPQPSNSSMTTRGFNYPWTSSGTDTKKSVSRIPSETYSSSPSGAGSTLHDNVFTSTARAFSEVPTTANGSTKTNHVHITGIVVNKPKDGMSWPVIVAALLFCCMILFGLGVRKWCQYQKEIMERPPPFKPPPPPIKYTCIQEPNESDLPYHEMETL

T2: CD96 extracellular region with His tag (CD96-His) (human, UniProt P40200 22-519)
T2 construct: also called CD96-ECD-His; Bio-CD96-His (biotin-labelled form)
T2 sequence: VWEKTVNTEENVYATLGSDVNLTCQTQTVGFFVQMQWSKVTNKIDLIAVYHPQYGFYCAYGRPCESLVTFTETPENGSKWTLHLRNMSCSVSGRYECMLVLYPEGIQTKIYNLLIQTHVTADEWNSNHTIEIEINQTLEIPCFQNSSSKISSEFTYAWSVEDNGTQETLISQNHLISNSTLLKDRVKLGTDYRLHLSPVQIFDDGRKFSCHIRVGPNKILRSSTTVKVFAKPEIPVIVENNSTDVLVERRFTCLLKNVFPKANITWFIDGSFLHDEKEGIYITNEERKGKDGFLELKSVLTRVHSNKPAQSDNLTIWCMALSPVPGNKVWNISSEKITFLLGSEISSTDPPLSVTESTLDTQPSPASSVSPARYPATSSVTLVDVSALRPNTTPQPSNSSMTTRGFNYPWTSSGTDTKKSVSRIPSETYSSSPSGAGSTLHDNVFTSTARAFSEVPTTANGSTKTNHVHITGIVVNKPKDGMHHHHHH

B1: ch1719 (antibody, human IgG4 S228P, kappa, V domains shown)
VH: QVQLKESGPGLVAPSQSLSITCTVSGFSLISYGVSWVRQPPGKGLEWLGVIWGDGNTNYHSVLISRLSIRKDDSKSQVFLKLNSLQTDDTATYYCAKNNYYGSRYGYPMDYWGQGTSVTVSS
VL: DIVMTQSHKFMSTSVGDRVSITCKATQDVGTAVAWYQQKPGHSPKLLIYWASTRHTGVPERFTGSGSGTDFTLTIDNVQSEDLADYFCQQYGSSVLTFGAGTKVELRR
notes: also called chimeric antibody corresponding to m1719
B2: ch1721 (antibody, human IgG4 S228P, kappa, V domains shown)
VH: B1 VH with S35N, N56S, V62A, R70S, K81N, N99Y, Y100F, P108A, Y111S, T116I
VL: DIQMTQSPASLSAAVGETVTITCRASENIYSSLAWYQQKQGKSPQLLVYNAKTLIETVASRFSGSGSGTQYSLKINSLQPEDFGSFYCQHHYGTPYTFGGGTKLEIKR
notes: also called chimeric antibody corresponding to m1721
B3: h1722-010 (antibody, V domains shown)
VH: EVQLVQSGAEVKKPGSSVKVSCKASGGTFSDYWMHWVRQAPGQGLEWIGMLHPNSGTTSFNEKFKIRVTITADKSTSTAYMELSSLRSEDTAVYYCASDYSGPFAYWGQGTLVTVSS
VL: DIQLTQSPSSLSASVGDRVTITCSASSSVNYIHWYQQKPGKAPKRWIFDTSKLASGVPSRFSGSGSGTDYTLTISSLQPEDFATYYCQQWRSNPLTFGQGTKLEIK
notes: Only variable regions are tied to this name; also called M722-010
B4: h1722-006 (antibody, V domains shown)
VH: B3 VH
VL: B3 VL with L4M, F48Y, Y70F
notes: Only variable regions are tied to this name
B5: h1722-018 (antibody, V domains shown)
VH: B3 VH with N54Q
VL: B3 VL
B6: h1722-017 (antibody, V domains shown)
VH: B3 VH with N54K
VL: B3 VL
B7: h1721-003 (antibody, V domains shown)
VH: EVTLKESGPVLVKPTETLTLTCTVSGFSLSSYGVNWIRQPPGKALEWLGVIWGDGSTNYHSALISRLTISKDTSKSQVVLTLTNMDPVDTATYYCAKNYFYGSRYGYAMDSWGQGTTVTVSS
VL: DIQMTQSPSSLSASVGDRVTITCRASENIYSSLAWYQQKPGKAPKLLIYNAKTLIEGVPSRFSGSGSGTDFTLTISSLQPEDFATYYCQHHYGTPYTFGGGTKVEIK
notes: Only variable regions are tied to this name; also called M721-003
B8: ch1720 (antibody, human IgG4 S228P, kappa, V domains shown)
VH: EFQLQQSGPELVKPGASVKISCKASAYSLTDYNMNWVKQSNGKSLEWIGVINPSYGISSYNQKFKGKATLTVDQSSSTAYMHLNSLTSEDSAVYYCARQLRLPGYFDVWGTGTTVTVSS
VL: DIKMTQSPSSKNASLGERVTITCKASQDINSYLNWFQQKPGKSPKTLIYRASRLVDGVPSRFSGSGSGQDYSLTISSLEYEDMGIYYCLKYDEFPYTFGGGTKLEIKR
notes: also called chimeric antibody corresponding to m1720
B9: ch1718 (antibody, human IgG4 S228P, kappa, V domains shown)
VH: B8 VH with L29I, S58T, S59D, K63N, G66D, H82Q, R98I, T116I
VL: B8 VL with K11M, N12Y, S31N, S52N, L104V
notes: also called chimeric antibody corresponding to m1718
B10: h1718-012 (antibody, V domains shown)
VH: EVQLVQSGAEVKKPGASVKVSCKASGYTITDYNMNWVRQAPGQRLEWIGVINPSYGITDYNQNFKDRVTITVDTSASTAYMELSSLRSEDTAVYYCAIQLRLPGYFDVWGQGTTVTVSS
VL: DIQMTQSPSSLSASVGDRVTITCKASQDINQYLNWFQQKPGKAPKTLIYRANRLVDGVPSRFSGSGSGQDYTLTISSLQPEDFATYYCLKYDEFPYTFGGGTKVEIK
notes: as for B4
B11: h1719-010 (antibody, V domains shown)
VH: EVTLKESGPVLVKPTETLTLTCTVSGFSLSSYGVSWVRQPPGKGLEWLGVIWGDGNTNYHSVLISRLTISKDTSKSQVVLTLTNMDPVDTATYYCAKQNYYGSRYGYPIDYWGQGTTVTVSS
VL: DIQMTQSPSSVSASVGDRVTITCKATQDVGTAVAWYQQKPGKAPKLLIYWASTRHTGVPSRFSGSGSGTDFTLTISSLQPEDFATYYCQQYGSSVLTFGGGTKVEIK
notes: as for B4

The source of these data is US20200347130A1 (JIANGSU HENGRUI MEDICINE, published 2020).

Positions count from the first letter of the chain named.

One assay deals with T1, Full-length human CD96 on CHO-S cells. The assay is described as follows: cell ELISA, fixed CD96-overexpressing CHO-S cells. As to the method:
The binding capacity of the anti-CD96 antibody was tested by binding experiments of the antibody to human CD96 protein overexpressing CHO-S cells. The full-length CD96 plasmid was transfected into CHO-S cells by electrotransfection, and cells were then screened for two weeks under pressure for the detection of the expression of CD96. After the over-expressing cells were fixed at the bottom of the 96-well plate, the density of the signal after adding the antibody was used to judge the binding activity of the antibody to CD96 overexpressing CHO-S cells. The specific experimental method is as follows:
The cells were seeded at a density of 9×10⁴/100 μL/well in a 96-well plate and cultured overnight. After aspirating the supernatant, the plate was washed once with PBS, subsequently, 100 μl/well immunostaining fixation solution (Biyuntian, P0098) was added and fixed for one hour at room temperature, and the plate was washed three times with PBS. Once the liquid was discarded, 250 μl/well of 5% skim milk (BD, 232100) blocking solution diluted with PBS was added, and the plate was blocked in an incubator at 37° C. for 2.5 hours. After blocking, the blocking solution was discarded, the plate was washed 4 times with PBST buffer (pH 7.4 PBS containing 0.05% tween-20), followed by diluting 50 μl/well of different concentrations of the antibodies (hybridoma purification antibody or humanized antibody) to be tested the plate was incubated in an incubator at 37° C. for 2 hours. After incubation, the plate was wash 4 times with PBST. […] After washing the plate 4 times with PBST, 50 μl/well of TMB chromogenic substrate (KPL, Cat No. 52-00-03) was added, the plate was incubated at room temperature for 10-25 min, followed by adding 50 μl/well of 1M H₂SO₄ to stop the reaction. The absorption value was read at 450 nm with a NOVOStar microplate reader, and the EC50 value of the CD96 antibodies to CD96 overexpressing CHO-S cells was calculated (see FIG. 1 and Table 15).
(In general: An ELISA detects its analyte on a solid surface through an enzyme-linked reagent.)
One may read the EC50 as the concentration at which the effect is half-maximal. As to B1, the midpoint of the response, the EC50, lay at 0.012 nM.
Still for that read-out and setting: next, B2: 0.036 nM; B3: 0.047 nM.
The same measure, in the same setting: then B4, with 0.043 nM; and B5, with 0.044 nM; and B6, with 0.053 nM.
Still for that read-out and setting: then B7, with 0.074 nM.
As to B8, the EC50 is 0.036 nM.
On the same count and under the same terms, then B9, with 0.026 nM.
On the same count and under the same terms, then B10, with 0.031 nM.

For another assay, the target named is T2, CD96 extracellular region with His tag …. The assay is described as follows: ELISA, CD96-His coated. How it is done:
The binding capacity of the anti-CD96 antibody was tested by ELISA to determine the binding of the antibody to human CD96 protein. The His-tagged CD96 fusion protein was used to coat the microtiter plate, and the intensity of the signal after adding with the antibody was used for evaluating the binding activity of the antibody and CD96. The specific experimental method is as follows:
CD96-His with the sequence of SEQ ID NO: 4 prepared in Embodiment 1 was diluted to a concentration of 2 μg/ml with PBS buffer (Shanghai Yuanpei Biotechnology Co., Ltd. Cat No. B320), pH 7.4, added to a 96-well microtiter plate (Corning, Cat No. CLS3590-100EA) at a volume of 50 μl/well, and placed in an incubator at 37° C. for 2 hours. After discarding the liquid, 250 μl/well of 5% skim milk (BD, Cat No. 232100) blocking solution diluted with PBS was added, and the plate was incubated at 37° C. for 2.5 hours or at 4° C. overnight (16-18 hours) for blocking. After blocking, the blocking solution was discarded, and the plate was washed 4 times with PBST buffer (pH 7.4 PBS containing 0.05% tween-20). 50 μl/well of different concentrations of the antibodies to be tested (hybridoma purification antibody or humanized antibody) diluted with sample dilution was added, and the plate was incubated in an incubator at 37° C. for 1 hour. […] After washing the plate 4 times with PBST, 50 μl/well of TMB chromogenic substrate (KPL, Cat No. 52-00-03) was added, and the plate was incubated at room temperature for 5-15 minutes, followed by adding 50 μl/well of 1M H₂SO₄ to stop the reaction. The absorption value was read at 450 nm with a NOVOStar microplate reader, and the EC50 value of the binding of CD96 antibody to human CD96 was calculated (see Table 13).
The molecule B1 displayed an EC50 of 0.065 nM.
Same read-out and setting: next, B2: 0.075 nM; B3: 0.073 nM.
On the same count and under the same terms, then B4, with 0.077 nM.
On the same count and under the same terms, then B5, with 0.091 nM; and B6, with 0.113 nM.
For the molecule B7, the EC50 is 0.07 nM.
Still for that read-out and setting: then B8, with 0.074 nM; and B9, with 0.084 nM.
As to B10, the midpoint of the response, the EC50, lay at 0.095 nM.

The target is the same in the next assay. The assay is described as follows: SPR (Biacore), antibody captured, CD96-ECD-His as mobile phase. An excerpt: Protein A biosensor chip was used to capture antibodies to be tested, then CD96 antigen was flowed on the surface of the chip, and real time reaction signal was detected by Biacore to obtain the binding and dissociation curve. After the dissociation of each experimental cycle was completed, the biosensor chip was washed and regenerated with a glycine-hydrochloric acid regeneration solution (pH 1.5).
For orientation: In SPR one partner is held on a chip, and binding of the other changes the refractive index at the surface.
As a reminder, the Kd is a measure of binding affinity in units of concentration. A low value points to higher affinity. Molecule B1 displayed a Kd of 9.74 nM.
Still for that read-out and setting: next, B2: 2.28 nM; B3: 0.86 nM; B4: 1.19 nM.
Same read-out and setting: then B7, with 1.61 nM.
B8 registered a Kd of 1.35 nM.
On the same count and under the same terms, then B9, with 3.32 nM; and B10, with 3.98 nM; and B11, with 465 nM.
